Results: patent US20250074980A1 (BRIGHAM AND WOMEN S HOSPITAL, published 2025)
Positions count from the first letter of the chain named. Names and notes keep the numbering of the source.

B1: VH1/Vκ1 (antibody, IgG4, V domains shown)
VH: EVQLLESGGGLVQPGGSLRLSCAASGFIFSSHGMSWVRQAPGKGLEWVATISSGGTYTYYPDSVKGRFTISRDNSKNTLYLQMNSLKAEDTAMYYCARHDFDYDAAWFAYWGQGTLVTVSS
VL: QIVLTQSPALLSLSPGERATMSCSANSSVSYMYWYRQKPGQAPKPWIYLTSNLASGVPARFSGSGSGTDYTLTISSLEAEDFATYYCQQWSSNPPTFGQGTKLEIK
notes: IgG4 (S241P), kappa
B2: VH1/Vκ2 (antibody, IgG4, V domains shown)
VH: B1 VH
VL: B1 VL with Q1E, L10T, M21L, S24R, R36Q, K44R, L53R, S55T, A79P
notes: IgG4 (S241P), kappa
B3: VH1/Vκ4 (antibody, IgG4, V domains shown)
VH: B1 VH
VL: B1 VL with Q1E, L10T, M21L, S24R, R36Q, K44R, L53R, S55T, V57I, A79P
notes: IgG4 (S241P), kappa
B4: VH1/Vκ11 (antibody, IgG4, V domains shown)
VH: B1 VH
VL: EIVLTQSPATLSLSPGERATLSCRANSSVSYMYWYQQKPGQAPRPWIYLTSNRATGIPARFSGSGSGTDYTLTISSLEPEDFAVYYCQQWSSNPPTFGQGTKLEIK
notes: IgG4 (S241P), kappa
B5: VH2/Vκ1 (antibody, IgG4, V domains shown)
VH: B1 VH with K87R
VL: B1 VL
notes: IgG4 (S241P), kappa
B6: VH2/Vκ4 (antibody, IgG4, V domains shown)
VH: B1 VH with K87R
VL: B4 VL with V84T
notes: IgG4 (S241P), kappa
B7: VH3/Vκ2 (antibody, IgG4, V domains shown)
VH: B1 VH with P61A, K87R
VL: B4 VL with I57V, V84T
notes: IgG4 (S241P), kappa
B8: VH3/Vκ4 (antibody, IgG4, V domains shown)
VH: B1 VH with P61A, K87R
VL: B4 VL with V84T
notes: IgG4 (S241P), kappa
B9: VH4/Vκ2 (antibody, IgG4, V domains shown)
VH: B1 VH with A49S, P61A, K87R, M93V
VL: B4 VL with I57V, V84T
notes: IgG4 (S241P), kappa
B10: VH4/Vκ4 (antibody, IgG4, V domains shown)
VH: B1 VH with A49S, P61A, K87R, M93V
VL: B4 VL with V84T
notes: IgG4 (S241P), kappa
B11: VH2/Vκ2 (antibody, IgG4, V domains shown)
VH: B1 VH with K87R
VL: B4 VL with I57V, V84T
notes: IgG4 (S241P), kappa
B12: VH4/Vκ1 (antibody, IgG4, V domains shown)
VH: B1 VH with A49S, P61A, K87R, M93V
VL: B1 VL
notes: IgG4 (S241P), kappa
B13: VH3/Vκ1 (antibody, IgG4, V domains shown)
VH: B1 VH with P61A, K87R
VL: B1 VL
notes: IgG4 (S241P), kappa

Target: T1, His-tagged CEACAM1 (human, UniProt P13688 35-428)
T1 construct: 45 kDa SPR analyte; also called CEACAM1-HIS; CEACAM1 analyte
T1 sequence: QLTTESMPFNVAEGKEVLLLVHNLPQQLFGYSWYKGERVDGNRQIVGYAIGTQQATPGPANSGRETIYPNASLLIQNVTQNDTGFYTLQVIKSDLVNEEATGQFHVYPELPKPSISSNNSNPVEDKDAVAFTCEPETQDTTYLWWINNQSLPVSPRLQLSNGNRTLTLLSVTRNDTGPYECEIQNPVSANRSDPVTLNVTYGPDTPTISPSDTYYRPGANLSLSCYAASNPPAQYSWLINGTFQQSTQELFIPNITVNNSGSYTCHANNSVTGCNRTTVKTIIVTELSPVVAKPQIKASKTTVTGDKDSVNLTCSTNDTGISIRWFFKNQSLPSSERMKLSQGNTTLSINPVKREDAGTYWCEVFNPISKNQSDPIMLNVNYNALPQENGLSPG
Test: SPR single-cycle, IgG captured
Description: (§1) As an alternative approach to assess the binding of the 36 antibody combinations and the three control antibodies to CEACAM1, a kinetic analysis was performed on a Biacore T200 (serial no. 1909913) running Biacore T200 Evaluation Software V2.0.1 (Uppsala, Sweden). All experiments were run at 25° C. with HBS-P+ running buffer (pH 7.4) (GE Healthcare, cat. no. BR100671). All kinetic experiments were performed using His-tagged CEACAM1 as the analyte. For all experiments, antibodies were immobilized onto a Series S Protein A sensor chip surface. For kinetic experiments, the amount of immobilized/captured ligand was limited to avoid mass transfer effects at the surface of the chip with the surface ideally having an analyte binding level (Rₘₐₓ) of 50-150 RUs. Using a MW of 45 kDa for the CEACAM1 analyte, 150 kDa for the antibody ligand (estimated value for IgG), 50 RU for Rmax and the stoichiometry (Sm) as 2 due to the ability of each antibody to bind 2 target molecules, a target response level of ˜75 RUs was set for capture of all the sample antibodies.
Single cycle analysis of the 36 antibody combinations and the three control antibodies was performed on purified antibodies (Vκ1 to Vκ6 variants) or on the supernatants of the transiently transfected HEK EBNA cells (Vκ7 to Vκ12 variants). In some instances, where supernatant was not available, purified chimeric antibody VH0/Vκ0 was spiked into HEK EBNA culture medium to use as a positive control. Antibodies were diluted in HBS-P+ to a concentration of 1 μg/ml (as determined by an IgG quantitation ELISA). At the start of each cycle, antibodies were loaded onto Fc2, Fc3 and Fc4 of a protein A chip and IgG captured at a flow rate of 8 μl/min to give an RU of ˜75. The surface was then allowed to stabilize. Single cycle kinetic data was obtained at a flow rate of 50 μl/min to minimize any potential mass transfer effects. Multiple repeats of the chimeric antibody VH0/Vκ0 were performed to check the stability of the surface and analyte over the kinetic cycles. The signal from the reference channel Fc1 (no antibody) was subtracted from that of Fc2, Fc3 and Fc4 to correct for differences in non-specific binding to a reference surface. A 5 point 2-fold dilution range from 3.125 to 50 nM CEACAM1 without regeneration between each concentration was used.

Kd [nM]	relative KD to VH0/Vκ0	Binder
85	2	B1
134	3.2	B2
131	3.1	B3
143	3.5	B4
113	2.7	B5
103	2.5	B6
103	2.5	B7
81	1.9	B8
74	1.8	B9
120	2.9	B10
98	2.3	B11
99	2.4	B12
135	3.2	B13

Target: T2, CEACAM6 on transfected HeLa cells (human, UniProt P40199 35-320)
T2 construct: whole, on cells; also called HeLa-CEACAM6; HeLa C6
T2 sequence (looked up): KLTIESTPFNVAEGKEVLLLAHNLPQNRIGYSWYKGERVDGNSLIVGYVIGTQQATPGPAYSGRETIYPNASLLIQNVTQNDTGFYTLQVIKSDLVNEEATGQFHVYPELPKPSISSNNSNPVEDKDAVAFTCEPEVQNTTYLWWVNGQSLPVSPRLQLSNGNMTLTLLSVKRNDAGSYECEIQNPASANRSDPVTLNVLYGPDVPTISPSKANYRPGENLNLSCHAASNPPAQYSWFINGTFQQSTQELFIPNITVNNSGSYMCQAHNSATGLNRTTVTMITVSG
Test: flow cytometry, HeLa-CEACAM6 transfectants, % positive cells
Description: Binding selectivity for CEACAM1 was tested for the 24 humanized antibody variants that bound to CEACAM1 (see Table 3), as well as the chimeric control antibody VH0/Vκ0, by flow cytometry on HeLa cells transfected with CEACAM1, 3, 5, 6 and 8. […] There was no evidence of any staining of the HeLa-CEACAM3 or HeLa-CEACAM8 transfectants. […] Due to its favorable affinity to and selectivity for CEACAM1 as well as its favorable expression level, VH1/Vκ8 was chosen as the framework for affinity maturation.

binding result	Binder
no binding	B1
no binding	B2
no binding	B3
no binding	B4
no binding	B5
no binding	B6
no binding	B7
no binding	B8
no binding	B9
no binding	B10
no binding	B11
no binding	B12
no binding	B13

Target: T3, CEACAM3 on transfected HeLa cells (human, UniProt P40198 35-252)
T3 construct: whole, on cells; also called HeLa-CEACAM3; HeLa C3
T3 sequence (looked up): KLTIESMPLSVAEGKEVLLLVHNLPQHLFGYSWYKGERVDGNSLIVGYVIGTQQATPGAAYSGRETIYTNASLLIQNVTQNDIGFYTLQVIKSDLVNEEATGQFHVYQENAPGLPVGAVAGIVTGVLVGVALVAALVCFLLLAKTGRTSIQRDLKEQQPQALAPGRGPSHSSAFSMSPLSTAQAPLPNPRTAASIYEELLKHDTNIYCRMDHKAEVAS
Test: flow cytometry, transfected HeLa
Outline: (§2)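 Binding selectivity was assessed by flow cytometry and is expressed as the staining of each HeLa transfectant, each stably carrying a single CEACAM family member. The cells were kept at 37° C, 5.0% CO₂ in DMEM containing 10% fetal bovine serum. Staining used the test antibody followed by a fluorochrome-conjugated isotype-specific secondary antibody, and DAPI marked viability.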

binding result	Binder
no binding	B1
no binding	B2
no binding	B3
no binding	B4
no binding	B5
no binding	B6
no binding	B7
no binding	B8
no binding	B9
no binding	B10
no binding	B11
no binding	B12
no binding	B13

Target: T4, CEACAM8 on transfected HeLa cells (human, UniProt P31997 35-320)
T4 construct: whole, on cells; also called HeLa-CEACAM8; HeLa C8
T4 sequence (looked up): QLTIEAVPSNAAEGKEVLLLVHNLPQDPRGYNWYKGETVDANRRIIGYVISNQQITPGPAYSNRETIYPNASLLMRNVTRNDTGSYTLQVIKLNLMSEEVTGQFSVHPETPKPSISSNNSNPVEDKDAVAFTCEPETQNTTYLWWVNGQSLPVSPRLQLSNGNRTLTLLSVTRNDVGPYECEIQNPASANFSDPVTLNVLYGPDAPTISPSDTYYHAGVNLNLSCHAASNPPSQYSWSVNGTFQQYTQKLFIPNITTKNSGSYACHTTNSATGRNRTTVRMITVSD
Test: flow cytometry, transfected HeLa
Outline: as §2

binding result	Binder
no binding	B1
no binding	B2
no binding	B3
no binding	B4
no binding	B5
no binding	B6
no binding	B7
no binding	B8
no binding	B9
no binding	B10
no binding	B11
no binding	B12
no binding	B13

Target: T1, His-tagged CEACAM1
Test: SPR multi-cycle, IgG captured
Description: as §1
The signal from the reference channel Fc1 was subtracted from that of Fc2, Fc3 and Fc4 to correct for differences in non-specific binding to a reference surface, a global Rmax parameter was used in the 1-to-1 binding model. The relative Kp compared to […] was calculated by dividing the Kp of the humanized CEACAM antibody variants by that of the chimeric antibody VH0/Vκ0 on the same chip. A summary of the averaged relative Kp obtained for the 12 antibody combinations analyzed using multi cycle kinetics can be found in Table 5.

Kd [nM]	average relative KD to VH0/Vκ0	koff [s⁻¹]	kon [M⁻¹ s⁻¹]	relative KD to VH0/Vκ0	Binder
190	3.4	0.0503	265000	3.4	B2
